# Values joined by “and” are separate entries in the source; they are usually repeats but may differ in a detail not shown here. Equal values may be shown once.
# Assay: Pharmacokinetic study of intranasal tissue kallikrein (125I-KLK1 tissue concentrations by gamma counting)
# Assay type: in vivo
# Settings: rat, 30 min. end point, individual animal, listed as kallikrien
# Description: The purpose of this study was to quantify the amount of tissue kallikrein (KLK1) reaching the central nervous system and peripheral tissues after intranasal administration to anesthetized rats. At 30 min after KLK1 administration, animals were transcardially perfused with ice-cold saline followed by paraformaldehyde fixative and tissues were dissected. The amount of radiolabeled KLK1 in each tissue sample was quantified by gamma counting and tissue concentrations were calculated using tissue weight and gamma counting of standards of the dosing solutions
# Adult male Sprague Dawley rats (n=10, mean 335.4 g±4.57 g SE) were used for this study. Animals were group housed in the Regions Hospital Animal Care Facility with free access to food and water. Animals were kept on a 12 h light cycle. All experimental procedures were approved by the Animal Care and Use Committee at Regions Hospital under IACUC protocol number 08-022.
# Tissue kallikrein was sent to Perkin-Elmer for ^125I-labelling (Quote NEX-084, lot C1541583). Non-labeled KLK1 from Sigma (cat#K3627-1KU, lot 018K1441) was also used. Non-labeled KLK1 was dissolved in 1×PBS (10×PBS, Sigma, cat #P5493, lot 027K8405 diluted in sterile water). The average dose was 48.1 μL, 75 μCi, and 2.6 mg.
# • a. Prior to anesthesia, each rat was weighed. • b. An anesthesia cocktail was prepared and full, half, and quarter anesthesia doses were calculated according to the animal's weight with a full dose containing 30 mg/kg ketamine, 6 mg/kg xylazine, and 1 mg/kg acepromazine. • c. A 1-cc syringe fitted with a 25 G or 27 G, ½ inch needle was assembled and a full dose was drawn into the syringe for injection. • d. Rats were restrained in a towel as follows. Rats were placed ventral side down in the middle of a hand towel. The towel was then wrapped around the head and shoulders to restrain. Wrapped animals remained ventral side down while the left hind leg was located. • e. The left hind leg was drawn to the side and the needle was inserted just beneath the skin (subcutaneous) above the thigh. After ensuring that the needle was placed subcutaneously (and not intramuscularly), full doses were injected. Rats were placed in holding cages and the injection time noted. Animals should be under within 5 min. • f. Anesthesia was monitored throughout the procedures by assessing reflexes using pinching of the hind paw or tail. If a reflex was present, a half or quarter dose booster was administered as necessary. • g. During drug administration, animals received a half dose booster roughly 20-25 min after initial dose. Intranasal Delivery of ^125I-KLK1 • a. Anesthetized rats were placed on their backs on a heating pad in a metal surgical tray. The heating pad was connected to a thermostat and was automatically regulated to maintain a 37° C. temperature based on continuous measurement from a rectal probe. • b. A 2″×2″ gauze pad was rolled tightly into a pillow, taped together, and under the neck to maintain a correct neck position horizontal with the counter. • c. A lead impregnated shield was placed between the surgical tray and the experimenter for protection against radiation. The dose solution, pipette, pipette tips, and waste receptacle were arranged behind the shield for easy access. • d. A 6 μL drop was loaded into the pipette behind the shield. • e. A cotton swab covered in parafilm was used to occlude one naris completely (the flat part of the swab was pushed gently against the naris to prevent airflow), while the 6 μL drop was expelled slowly from the pipette (held at a 45° angle from the rat's midline), forming a drop on the pipette tip. The drop was lowered onto the open naris to be inhaled. • f. After two minutes, the alternate naris was occluded and a 6 μL drop was administered in the same fashion. • g. A drop was administered as described above every two minutes to alternating nares until a total of 8 drops was delivered (4 to each naris) over 14 min. • h. […]
molecule,measurement,value
"tissue kallikrein: serine protease that cleaves kininogen into kallidin; polypeptide SEQ ID NO:1 (Sus scrofa kallikrein 1), KLK1 from Sigma (protein, listed as Sus scrofa, 125I label in one form) MWSLVMRLALSLAGTGAAPPIQSRIIGGRECEKDSHPWQVAIYHYSSFQCGGVLVDPKWVLTAAHCKNDNYQVWLGRHNLFENEVTAQFFGVTADFPHPGFNLSLLKNHTKADGKDYSHDLMLLRLQSPAKITDAVKVLELPTQEPELGSTCQASGWGSIEPGPDDFEFPDEIQCVELTLLQNTFCADAHPDKVTESMLCAGYLPGGKDTCMGDSGGPLICNGMWQGITSWGHTPCGSANKPSIYTKLIFYLDWINDTITENP","concentration in Lung (R, top lobe)",48.6 nM and 48.7 nM and 46.8 nM and 18.2 nM and 37.2 nM and 30.1 nM and 27.9 nM and 24.4 nM and 64.3 nM and 25.5 nM
same,concentration in Medulla,12.3 nM and 9.9 nM and 13.99 nM and 17.4 nM and 11.1 nM and 21.0 nM and 21.1 nM and 10.6 nM and 20.5 nM and 10.8 nM
same,concentration in Midbrain,12.3 nM and 9.5 nM and 13.1 nM and 15.3 nM and 10.0 nM and 15.9 nM and 9.9 nM (2×) and 16.4 nM
same,"concentration in Muscle (R, deltoid)",24.2 nM (2×) and 17.7 nM and 17.5 nM and 15.8 nM and 12.4 nM and 16.5 nM and 23.1 nM and 29.3 nM and 33.2 nM
same,concentration in Occipital Cortex,9.8 nM (2×) and 9.6 nM and 12.7 nM and 12.3 nM and 14.1 nM and 14.0 nM and 13.6 nM and 19.2 nM
same,concentration in Olfactory Bulbs,44.4 nM and 39.9 nM and 128.1 nM and 168.8 nM and 66.2 nM and 220.9 nM and 123.5 nM and 74.5 nM and 157.1 nM and 48.2 nM
same,concentration in Olfactory Epithelium,"17,707.4 nM and 21,919.4 nM and 21,270.9 nM and 41,836.8 nM and 17,083.5 nM and 31,983.9 nM and 38,661.3 nM and 13,736.3 nM and 17,247.4 nM and 26,179.4 nM"
same,concentration in Optic Chiasm,20.7 nM and 14.4 nM and 41.3 nM and 34.7 nM and 51.4 nM and 8.4 nM and 38.2 nM and 27.0 nM and 28.7 nM
same,concentration in Parietal Cortex,7.5 nM and 8.5 nM and 10.5 nM and 9.0 nM and 10.1 nM and 18.5 nM and 14.3 nM and 12.8 nM and 17.6 nM and 12.3 nM
same,concentration in Pituitary,86.9 nM and 44.0 nM and 58.9 nM and 51.8 nM and 79.3 nM and 59.7 nM and 44.3 nM and 67.9 nM and 48.1 nM
same,concentration in Pons,12.4 nM and 10.0 nM and 13.9 nM and 16.2 nM and 10.1 nM and 22.0 nM and 18.6 nM and 10.6 nM and 20.4 nM and 10.2 nM
same,concentration in Posterior Trigeminal Nerve,82.3 nM and 37.8 nM and 60.5 nM and 48.7 nM and 47.7 nM and 50.2 nM and 35.9 nM and 70.5 nM and 32.6 nM
same,concentration in Renal artery (L),56.2 nM and 67.3 nM and 103.1 nM and 52.8 nM and 55.8 nM and 26.1 nM and 43.0 nM and 78.9 nM and 66.9 nM and 31.2 nM
same,concentration in Respiratory Epithelium,"78,502.7 nM and 75,759.2 nM and 26,815.1 nM and 82,292.8 nM and 126,759.8 nM and 34,402.4 nM and 71,775.8 nM and 107,890.6 nM and 91,206.0 nM and 64,295.5 nM"
same,concentration in Septal Nucleus,9.5 nM and 8.2 nM and 13.3 nM and 13.6 nM and 10.2 nM and 19.4 nM and 12.9 nM and 9.8 nM and 12.0 nM
same,concentration in Spinal Dura,23.1 nM and 26.3 nM and 36.1 nM and 21.4 nM and 16.9 nM and 26.6 nM and 26.2 nM and 39.7 nM and 20.1 nM and 29.5 nM
same,concentration in Spleen (tip),29.0 nM and 81.5 nM and 35.1 nM and 87.5 nM and 91.1 nM and 82.9 nM and 75.4 nM and 89.8 nM and 73.8 nM and 80.0 nM
same,concentration in Striatum,8.2 nM and 5.5 nM and 8.5 nM and 6.7 nM and 7.23 nM and 14.9 nM and 10.4 nM and 9.5 nM and 15.1 nM and 11.9 nM
same,concentration in Superficial Nodes (2),58.8 nM and 39.9 nM and 42.2 nM and 60.1 nM and 66.8 nM and 69.0 nM and 94.2 nM and 68.9 nM and 68.0 nM
same,concentration in Temporal Cortex,9.9 nM and 7.8 nM and 11.65 nM and 10.4 nM and 14.2 nM and 16.6 nM and 15.6 nM and 12.5 nM and 13.7 nM and 11.5 nM
same,concentration in Thalamus,7.9 nM and 6.7 nM and 12.2 nM (2×) and 10.5 nM and 8.1 nM and 15.4 nM and 14.0 nM and 7.2 nM and 9.1 nM
same,concentration in Thoracic Spinal Cord,5.5 nM and 5.1 nM and 6.7 nM and 4.5 nM and 4.2 nM and 6.5 nM and 4.7 nM and 5.7 nM and 4.1 nM and 5.0 nM
same,concentration in Thyroid,"1,730.9 nM and 2,077.1 nM and 2,106.5 nM and 1,369.2 nM and 2,644.1 nM and 2,380.4 nM and 1,219.8 nM and 2,016.7 nM and 2,148.4 nM and 2,013.3 nM"
same,concentration in Trachea,58.5 nM and 116.8 nM and 64.5 nM and 93.6 nM and 44.8 nM and 59.3 nM and 65.1 nM and 110.6 nM and 86.4 nM
same,concentration in Upper Cervical Spinal Cord,16.0 nM and 17.0 nM and 18.18 nM and 31.6 nM and 18.8 nM and 35.1 nM and 37.2 nM and 20.4 nM and 27.0 nM and 12.8 nM
same,concentration in Urine,249.2 nM and 79.5 nM and 190.9 nM and 57.8 nM and 51.1 nM and 65.6 nM and 287.4 nM and 95.8 nM and 139.2 nM and 90.6 nM
same,concentration in Ventral Dura,113.7 nM and 71.6 nM and 29.8 nM and 138.3 nM and 165.6 nM and 259.4 nM and 192.6 nM and 150.8 nM and 211.8 nM and 96.1 nM

# From patent US8501695B2, “Tissue kallikrein for the treatment of diseases associated with amyloid protein” (DiaMedica, Inc., priority 2007, dated 2013)
